T1: PKC-ζ (purified isoform) (Homo sapiens (Human), UniProt Q05513 1-592)
T1 construct: also called PKC-zeta; PKCzeta
T1 sequence: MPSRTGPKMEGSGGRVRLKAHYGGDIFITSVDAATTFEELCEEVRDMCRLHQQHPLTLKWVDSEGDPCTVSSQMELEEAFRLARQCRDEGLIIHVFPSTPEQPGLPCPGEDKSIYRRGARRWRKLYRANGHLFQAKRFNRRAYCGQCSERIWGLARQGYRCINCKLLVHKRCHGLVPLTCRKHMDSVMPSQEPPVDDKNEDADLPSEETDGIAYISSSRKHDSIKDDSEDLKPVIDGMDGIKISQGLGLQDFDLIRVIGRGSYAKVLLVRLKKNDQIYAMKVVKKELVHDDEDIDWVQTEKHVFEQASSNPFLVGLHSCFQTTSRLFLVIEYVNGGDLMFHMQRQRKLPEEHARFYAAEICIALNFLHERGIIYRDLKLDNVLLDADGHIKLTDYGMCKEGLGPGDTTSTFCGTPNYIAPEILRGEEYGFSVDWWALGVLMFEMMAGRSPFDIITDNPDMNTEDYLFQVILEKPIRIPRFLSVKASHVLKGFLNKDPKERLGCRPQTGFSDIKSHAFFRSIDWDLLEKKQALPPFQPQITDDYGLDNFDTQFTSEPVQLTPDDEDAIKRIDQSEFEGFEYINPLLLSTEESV

T2: PKC-ε (purified isoform) (Homo sapiens (Human), UniProt Q02156 1-737)
T2 construct: also called PKC-epsilon; PKCepsilon
T2 sequence: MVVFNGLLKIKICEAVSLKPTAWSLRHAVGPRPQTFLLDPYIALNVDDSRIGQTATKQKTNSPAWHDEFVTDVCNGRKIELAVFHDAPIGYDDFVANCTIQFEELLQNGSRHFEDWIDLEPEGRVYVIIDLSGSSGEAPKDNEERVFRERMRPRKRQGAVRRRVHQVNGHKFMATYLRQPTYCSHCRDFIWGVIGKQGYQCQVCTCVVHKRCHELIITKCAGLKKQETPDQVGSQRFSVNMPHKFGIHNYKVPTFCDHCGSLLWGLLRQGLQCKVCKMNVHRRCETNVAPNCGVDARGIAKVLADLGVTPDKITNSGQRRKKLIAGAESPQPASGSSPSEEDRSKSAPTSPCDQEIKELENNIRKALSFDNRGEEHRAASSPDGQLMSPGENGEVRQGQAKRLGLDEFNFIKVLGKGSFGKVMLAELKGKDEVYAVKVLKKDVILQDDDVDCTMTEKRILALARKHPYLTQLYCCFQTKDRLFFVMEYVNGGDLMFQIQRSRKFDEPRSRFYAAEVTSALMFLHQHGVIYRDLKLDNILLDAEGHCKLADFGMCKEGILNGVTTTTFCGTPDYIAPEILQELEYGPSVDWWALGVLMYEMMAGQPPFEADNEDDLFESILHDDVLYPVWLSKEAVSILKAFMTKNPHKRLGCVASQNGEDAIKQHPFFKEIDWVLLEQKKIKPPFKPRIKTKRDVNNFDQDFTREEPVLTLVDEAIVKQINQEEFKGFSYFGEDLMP

B1: PRE 11 (peptide)
peptide: Ac-RDAQNLIGISI-NH2
notes: Synthetic peptide; also called peptide PRE 11
B2: PRE 13 (peptide)
peptide: Ac-RDAQNLI-NH2
notes: Synthetic peptide; also called peptide PRE 13; Ac-RDAQNLI-NH2
B3: PRE 6 (peptide)
peptide: Ac-KDANQLIGISI-NH2
notes: Synthetic peptide; also called peptide PRE 6
B4: PRE 3 (peptide)
peptide: Ac-AKGIQEVKGGDAQNLIGISI-NH2
notes: Synthetic peptide; also called peptide PRE 3
B5: PRE 12 (peptide)
peptide: Ac-KDAQNLI-NH2
notes: Synthetic peptide; also called peptide PRE 12; Ac-KDAQNLI-NH2
B6: PRE 7 (peptide)
peptide: Ac-ISIGILQNADK-NH2
notes: Synthetic peptide (retro form of PRE 4); also called peptide PRE 7
B7: PRE 4 (peptide)
peptide: Ac-KDAQNLIGISI-NH2
notes: Synthetic peptide; also called peptide PRE 4

target: T1, PKC-ζ (purified isoform); test: summary grade, purified isoform ELISA

| binding result | Binder |
| --- | --- |
| no binding (tested: 200 µM) | B1 |
| no binding (tested: 200 µM) | B2 |
| no binding (tested: 200 µM) | B3 |

target: T2, PKC-ε (purified isoform); test: competitive ELISA on purified PKC-ε vs anti-PKC-ε Ab; PRE 50 µM
Experimental: (§1) Greiner 96 well ELISA plates were coated with the appropriate PKC isoform diluted in PBSN (PBS with Calcium/Magnesium+0.05% Sodium azide w/w). 50 μL/well at 250 ng/mL was used. Control wells contained PBSN only. Plates were incubated overnight at 4° C.
(§2) The plates were washed 3 times with 200 μL of dH₂O per well, then 100 μL of blocking solution was added per well and the plate incubated for 1 h at 37° C. The washing steps with dH₂O were repeated and 50 μL of the appropriate PRE solution (PRE stock solution [20 mM in DMSO] diluted in PBSN) was added and the plate incubated for 1 h at room temperature.
(§3) 50 μL of 1:1000 dilution of Alkaline Phosphatase (AP) conjugated antibody (anti-rabbit for all except zeta, which was anti-goat) was then added and the plate incubated for 1 h at room temperature. Washing with dH₂O was then repeated. Finally, 100 μL of pNPP solution in pNPP buffer (2 mM MgCl₂, 100 mM Sodium bicarbonate in water, pH 9.8) was added to all wells and incubated for 8 minutes for α, βI, βII ε, and ζ, or for 15-20 mins for […] (until sufficient coloration is observed). The reaction was stopped by addition of Stop solution (2N NaOH) and the absorbance at 405 nm was read on a Galaxy Plate reader.

| binding capacity (%) | Binder |
| --- | --- |
| 34% | B4 |
| 2.25% | B1 |
| 10.4% | B5 |
| 0% | B2 |
| 8.04% | B6 |

target: T3, PKC-α (purified isoform) (Homo sapiens (Human), UniProt P17252 2-672); test: competitive ELISA on purified PKC-α vs anti-PKC-α Ab; PRE 100 µM
T3 construct: also called PKC-alpha; PKCalpha
Experimental: as §1
After incubation, 5 μL of 1.1:400 anti-PKC (isoform specific antibody) was added per well (to provide a final concentration of 1:4000). For PKC-epsilon, 1.1:800 dilution was used and for PKC-zeta a 1.1:100 dilution was used due to high and low binding affinity, respectively. The plates were then incubated 1 h at room temperature, followed by washing with dH₂O as described above.
as §3

| binding capacity (%) | Binder |
| --- | --- |
| 26.5% | B4 |
| 21.9% | B7 |
| 5.96% | B1 |
| 5.16% | B5 |
| 6.72% | B6 |

target: T2, PKC-ε (purified isoform); test: competitive ELISA on purified PKC-ε vs anti-PKC-ε Ab; PRE 100 µM
Experimental: as §1, §2, §3

| binding capacity (%) | Binder |
| --- | --- |
| 31.5% | B4 |
| 13% | B1 |
| 0.28% | B5 |
| 0% | B2 |
| 14% | B6 |

target: T4, PKC-βII (purified isoform) (Homo sapiens (Human), UniProt P05771 2-621); test: competitive ELISA on purified PKC-βII vs anti-PKC-βII Ab; PRE 200 µM
T4 construct: also called PKC-beta II
T4 sequence (P05771 other isoform, or with tags, fused parts or gaps limits assumed): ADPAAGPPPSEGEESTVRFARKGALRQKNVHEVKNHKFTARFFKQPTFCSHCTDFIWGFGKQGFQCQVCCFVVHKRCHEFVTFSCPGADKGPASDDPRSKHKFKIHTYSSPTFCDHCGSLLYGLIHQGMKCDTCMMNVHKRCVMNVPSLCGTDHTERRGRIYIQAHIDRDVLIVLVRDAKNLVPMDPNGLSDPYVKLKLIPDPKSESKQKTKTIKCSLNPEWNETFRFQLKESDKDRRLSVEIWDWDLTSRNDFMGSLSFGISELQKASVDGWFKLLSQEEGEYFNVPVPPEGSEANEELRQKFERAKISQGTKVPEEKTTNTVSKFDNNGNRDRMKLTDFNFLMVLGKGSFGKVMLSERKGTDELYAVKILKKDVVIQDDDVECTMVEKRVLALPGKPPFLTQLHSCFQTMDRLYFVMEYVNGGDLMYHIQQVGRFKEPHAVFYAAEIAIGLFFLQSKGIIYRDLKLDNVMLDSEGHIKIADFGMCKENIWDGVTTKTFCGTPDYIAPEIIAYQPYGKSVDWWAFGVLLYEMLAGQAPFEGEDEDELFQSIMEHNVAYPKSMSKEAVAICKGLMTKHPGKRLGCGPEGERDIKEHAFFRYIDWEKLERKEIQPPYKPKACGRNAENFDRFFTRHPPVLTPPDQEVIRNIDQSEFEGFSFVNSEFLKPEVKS
Experimental: as §1, §2, §3

| binding capacity (%) | Binder |
| --- | --- |
| 1.18% | B7 |
| 0% | B2 |
| 0% | B3 |
